Values quoted from earlier work in paper PMC10954796, “Post-translational modifications of beta-amyloid alter its transport in the blood-brain barrier in vitro model” (Frontiers in Molecular Neuroscience, 2024).
“And” between values parts separate entries of the source, which are not always exact repeats. Equal entries are not always repeated.

What was measured:
[1] = target: Aβ42 oligomers 1-42 (Homo sapiens) (UniProt P05067); assay: surface plasmon resonance
Aβ40 1-40 (Homo sapiens) = Aβ40 1-40 (Homo sapiens) (UniProt P05067)
Sequence of Aβ40 1-40 (Homo sapiens) (P05067 1-40): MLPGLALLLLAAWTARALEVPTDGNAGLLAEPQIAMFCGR

Sequence of Aβ42 oligomers 1-42 (Homo sapiens) (P05067 1-42): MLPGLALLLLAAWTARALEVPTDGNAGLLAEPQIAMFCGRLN

Substance	Kd [1] [nM]	Kd (Aβ40 1-40 (Homo sapiens))
sRAGE (from UniProt Q15109)	17	
RAGE (from UniProt Q15109)		75 nM and 57 nM
